Source: PMC60004

Legend:
[1] = molecular target: Bombyx mori aminopeptidase N, native, 115-kDa (115-120 kDa) Cry1Aa-binding receptor (Bombyx mori (endogenous in larval midgut)); assay: SPR
[2] = molecular target: Bombyx mori cadherin-like receptor BtR175, native, 175 kDa (Bombyx mori (endogenous in larval midgut)); assay: SPR

Hybrid toxin 4109 (domains I and II of Cry1Aa, domain III of Cry1Ac)
Kd [1]: 78 nM | koff [1]: 0.0015 s⁻¹ | kon [1]: 19000 M⁻¹ s⁻¹ | Kd [2]: 2.6 nM | koff [2]: 3.34e-05 s⁻¹ | kon [2]: 13000 M⁻¹ s⁻¹
